This note sets out measurements from paper PMC2635894 (Biochemistry, 2008).

Assay [1] addresses T1, HDAC8 (histone deacetylase 8) (Homo sapiens, UniProt Q9BY41, D101N).
T1 sequence (Q9BY41 1-377 D101N): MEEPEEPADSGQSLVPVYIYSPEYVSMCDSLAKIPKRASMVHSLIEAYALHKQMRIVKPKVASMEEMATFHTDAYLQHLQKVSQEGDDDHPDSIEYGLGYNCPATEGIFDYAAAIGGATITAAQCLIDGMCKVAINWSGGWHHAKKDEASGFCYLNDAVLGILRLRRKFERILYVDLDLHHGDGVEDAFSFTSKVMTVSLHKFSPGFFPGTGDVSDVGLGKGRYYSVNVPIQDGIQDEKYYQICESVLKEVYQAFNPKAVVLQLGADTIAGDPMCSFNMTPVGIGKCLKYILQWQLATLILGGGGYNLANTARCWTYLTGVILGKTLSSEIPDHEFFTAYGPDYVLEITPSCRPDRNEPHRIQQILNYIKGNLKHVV
Put plainly: X-ray crystal structure. It counts as binding.

Assay [2] has as its target T2, HDAC8 (histone deacetylase 8) (Homo sapiens, UniProt Q9BY41, D101E).
T2 sequence (Q9BY41 1-377 D101E): T1 sequence (Q9BY41 1-377 D101N) with N101E
Put plainly: X-ray crystal structure. It counts as binding.

The target of assay [3] is T3, HDAC8 (histone deacetylase 8) (Homo sapiens, UniProt Q9BY41, D101A).
T3 sequence (Q9BY41 1-377 D101A): T1 sequence (Q9BY41 1-377 D101N) with N101A
Put plainly: X-ray crystal structure. It counts as binding.

Assay [4] concerns the target T4, D101N HDAC8 (human histone deacetylase 8, D101N variant) (human, UniProt Q9BY41 1-377, D101N).
T4 sequence: T1 sequence (Q9BY41 1-377 D101N)
Briefly: cell-based or functional assay.

For assay [5], the target named is T5, D101A HDAC8 (human histone deacetylase 8, D101A variant) (human, UniProt Q9BY41 1-377, D101A).
T5 sequence: T1 sequence (Q9BY41 1-377 D101N) with N101A
Put plainly: cell-based or functional assay.

The target in assay [6] is T6, D101L HDAC8 (human histone deacetylase 8, D101L variant) (human, UniProt Q9BY41 1-377, D101L).
T6 sequence: T1 sequence (Q9BY41 1-377 D101N) with N101L
Briefly: cell-based or functional assay.

For assay [7], the target named is T7, D101E HDAC8 (human histone deacetylase 8, D101E variant) (human, UniProt Q9BY41 1-377, D101E).
T7 sequence: T1 sequence (Q9BY41 1-377 D101N) with N101E
Briefly: cell-based or functional assay.

Changes are numbered by the printed parent chain. coumarin = not defined here

For `CN(C)c1ccc(C(=O)NCCCCCCC(=O)NO)cc1` [M344, 4-(dimethylamino)-N-[7-(hydroxyamino)-7-oxoheptyl]-benzamide], in assay [1], the “X-ray crystal structure (2.65 Å)” value is “The alternate conformer is stabilized by a hydrogen bond interaction with N101 in D101N HDAC8”. Besides, in assay [2], the “X-ray crystal structure (2.85 Å)” value was “Two conformations of the bound inhibitor are observed in the active sites of D101E, D101A and D101N HDACs”. Moreover, the “X-ray crystal structure (2.55 Å)” value in assay [3] is “Two conformations of the bound inhibitor are observed in the active sites of D101E, D101A and D101N HDACs”.
On to Ac-RHK(Ac)K(Ac)-coumarin (reading uncertain) [acetylated tetrapeptide substrate (N-acetyl-arginine-histidine-acetyllysine-acetyllysine-coumarin)], for which the “KM of deacetylation (Fluor de Lys assay, Co2+ enzyme, 25°C, pH 8.0)” value was greater than 1000 μM in assay [4], greater than 1000 μM in assay [5], greater than 1000 μM in assay [6] and 140 μM in assay [7]. The “kcat/KM of deacetylation (Fluor de Lys assay, Co2+ enzyme, 25°C, pH 8.0)” value worked out at 0.23 M^−1s^−1 in assay [4], 0.23 M^−1s^−1 in assay [5] and 1100 M^−1s^−1 in assay [7].
